The target in one test is T1, NINJA (Arabidopsis thaliana, UniProt Q9SV55).
T1 construct: expressed in transfected cells; host or cells: yeast strain MaV203
T1 sequence (Q9SV55 with tags, fused parts or gaps): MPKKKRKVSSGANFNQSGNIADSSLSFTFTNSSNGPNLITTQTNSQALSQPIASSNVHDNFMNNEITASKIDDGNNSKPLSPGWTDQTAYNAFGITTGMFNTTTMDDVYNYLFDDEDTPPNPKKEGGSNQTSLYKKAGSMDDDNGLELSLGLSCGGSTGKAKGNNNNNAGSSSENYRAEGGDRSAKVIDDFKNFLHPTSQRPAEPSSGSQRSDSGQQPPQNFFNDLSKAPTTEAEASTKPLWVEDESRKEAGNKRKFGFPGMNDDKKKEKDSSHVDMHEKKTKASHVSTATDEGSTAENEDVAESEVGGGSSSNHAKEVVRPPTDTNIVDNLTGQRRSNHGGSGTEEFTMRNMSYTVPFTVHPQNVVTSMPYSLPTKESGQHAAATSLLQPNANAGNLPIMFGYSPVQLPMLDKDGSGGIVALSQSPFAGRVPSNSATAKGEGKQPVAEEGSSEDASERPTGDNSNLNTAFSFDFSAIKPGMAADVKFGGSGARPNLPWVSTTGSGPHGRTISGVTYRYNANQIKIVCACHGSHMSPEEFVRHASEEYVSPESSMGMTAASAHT
Nature of the test: Yeast two hybrid (Y2H) interaction with NINJA. It is filed as binding. The note with it: Y2H screening, PPD1 as bait. An excerpt:
The constructs for Y2H and BiFC assays were generated as follows. Arabidopsis DNA sequences encoding the open reading frames for; At4g14713 (PPD1) and truncation and deletion derivatives of PPD1: PPD1; PPD1Δppd (N-terminal truncation of sequences encoding aa 1-61), PPD1Δtify, (internal deletion of sequences encoding aa 154-186), PPD1Δjas*(C-terminal truncation of sequences encoding aa 229-313) (FIG. 5), At4g28910 (NINJA), At1g15750 (TPL), At1g75080 (BZR1), a synthetic PUAS-35S promoter, and sequences encoding GAL4DBD and c-myc fusion proteins were synthesised and sequence verified by GeneArt. Most sequences were supplied as clones in pENTR221 ready for Gateway cloning into yeast and plant expression vectors. The exception, a promoter sequence for in planta transcription activation assays, incorporating 5′ Xho1 and 3′ Nco1 restriction enzyme sites, was supplied cloned in pMA-RQ. Plasmids for the transient LUC reporter assay: A synthetic promoter with 5×UAS GAL4 DNA binding sites upstream of a −105 bp CaMV35S promoter was cloned into the XhoI-NcoI sites within a dual luciferase construct pNWA62, which contains an intron-containing Firefly Luciferase gene (LUC) and 35Spro::Renilla Luciferase (REN) as an internal standard, to construct pAML7. […]

The test system of the next test is ryegrass plants. Nature of the test: Leaf biomass analysis of grass transformants. It is filed as in vivo. The conditions noted are these: observed leaf growth, approximately 6 weeks. On the procedure: An equal number (typically 4-10) of tillers were taken from WT and ryegrass plants transformed with Arabidopsis PPD under one of two green tissue promoters. Tillers were planted into plastic grow bags containing potting mix and pruned to be of equal height. […] The increase in leaf/shoot biomass can be quantified removing the attached above ground portion (leaves and shoots) and drying them at 65° C. for 48 hr then weighing the dry weights.
An equal number (typically 4-10) of tillers were taken from WT and ryegrass plants transformed with Arabidopsis PPD under a constitutive promoter. Tillers were planted into plastic grow bags containing potting mix and pruned to be of equal height. […] The increase in leaf/shoot biomass was quantified removing the attached above ground portion (leaves and shoots) and drying them at 65° C. for 48 hr then weighing the dry weights (Table 2).

B1: PPD1: PEAPOD 1 protein of Arabidopsis thaliana, SEQ ID NO: 1 (protein, listed as Arabidopsis thaliana)
chain: MDVGVSPAKSILAKPLKLLTEEDISQLTREDCRKFLKDKGMRRPSWNKSQAIQQVLSLKALYEPGDDSGAGIFRKILVSQPVNPPRVTTTLIEPSNELEACGRVSYPEDNGACHRMDSPRSAEFSGGSGHFVSEKDGHKTTISPRSPAETSELVGQMTIFYSGKVNVYDGIPPEKARSIMHFAANPIDLPENGIFASSRMISKLISKEKMMELPQKGLEKANSSRDSGMEGQANRKVSLQRYREKRKDRKFSKAKKCPGVASSSLEMFLNCQPRMKAAYSQNLGCTGSPLHSQSPESQTKSPNLSVDLNSEGI
Regarding B1, the “interaction with NINJA” value in the test with NINJA is given as “direct interactor”. Also, the “leaf biomass/growth/length/branching compared to WT plants” value in the test on ryegrass plants (constitutive promoter) and in the test on ryegrass plants (green tissue promoter) was “increase in leaf biomass/growth/length/branching” in each case.

The record behind these values is patent publication US10487337B2, “Methods for monocot plant improvement” (Agresearch Limited, priority 2014, dated 2019).
